The RNAGym collection of RNA variant scans (doi:10.7554/elife.80360)

B1: CPEB3 Ribozyme (parent)
chain: GGGGGCCACAGCAGAAGCGUUCACGUCGCGGCCCCUGUCAGAUUCUGGUGAAUCUGCGAAUUCUGCUGU

Variants of: B1
Test: self-cleavage, relative activity (ratio to wild type); higher = more cleavage; co-transcriptional

Variant	self-cleavage
GGGGGCCACAGCAGAAGCGUUCACGUCGUGGCCCCUGUCAGAUUCUGGUGAAUAUGCGAAUUCUGCUGU	0.169
GGGGGCCACAGCAGAAGCGUUCACGUCGUGGCCCCUGUCAGAUUCUGGUGAAUCUGCGAAUUCUGCUCU	0.571
GGGGGCCACAGCAGAAGCGUUCACGUCGUGCCCCCUGUCAGAUUCUGGUGAAUCUGCGAAUUCUGCUGU	0.158
GGGGGCCACAGCAGAAGCGUUCACGUCGUGGCCCCUGUCAGCUUCUGGUGAAUCUGCGAAUUCUGCUGU	0.229
GGGGGCCACAGCAGAAGCGUUCACGUCGUGGCCCCUGUCAGGUUCUGGUGAAUCUGCGAAUUCUGCUGU	0.246
GGGGGCCACAGCAGAAGCGUUCACGUCGUGGCCCCUGUCAGAUUCUGGUGAAUCUGCCAAUUCUGCUGU	0.398
GGGGGCCACAGCAGAAGCGUUCACGUCGGGGCCCCUGUCAGAUUCCGGUGAAUCUGCGAAUUCUGCUGU	0.473
GGGGGCCACAGCAGAAGCGUUCACGUCGGGGCCCCUGUCAGAUUCUGGUGAAUCUGCGAAUUGUGCUGU	0.183
GGGGGCCACAGCAGAAGCGUUCACGUCGGGGCCCCUGUCAGAUUCUGGUGAAUUUGCGAAUUCUGCUGU	0.545
GGGGGCCACAGCAGAAGCGUUCACGUCGGGGCCCCUGACAGAUUCUGGUGAAUCUGCGAAUUCUGCUGU	0.316
GGGGGCCACAGCAGAAGCGUUCACGUCGUGGCCCCUGUCAGAUUCUGGUGAAUCUGCGAAUUGUGCUGU	0.198
GGGGGCCACAGCAGAAGCGUUCACGUCGUGGCCCCUGUCAGAUUCUGGUGAAUCUGCGAAUUAUGCUGU	0.176
GGGGGCCACAGCAGAAGCGUUCACGUCGUGGCCCCUGUCAGAUUCUGGUGAAUCUGCGAAUACUGCUGU	0.15
GGGGGCCACAGCAGAAGCGUUCACGUCGGGGCCCCUGUCAGAUUCUGGUGAAUCUGCGAAUUCUGCUUU	0.8
GGGGGCCACAGCAGAAGCGUUCACGUCGUGGCCCCUGUCAGAUUCUUGUGAAUCUGCGAAUUCUGCUGU	0.631
GGGGGCCACAGCAGAAGCGUUCACGUCGCAGCCCCUGUCAGAUUCUGGUGAGUCUGCGAAUUCUGCUGU	0.852
GGGGGCCACAGCAGAAGCGUUCACGUCGUGGCUCCUGUCAGAUUCUGGUGAAUCUGCGAAUUCUGCUGU	0.511
GGGGGCCACAGCAGAAGCGUUCACGUCGCAGCCCCUGUCAGAUUCUGGUGAAUCUGCGAGUUCUGCUGU	0.395
GGGGGCCACAGCAGAAGCGUUCACGUCGCAGCCCCUGUCAGAUUCUGGUGAAUCUGCGAUUUCUGCUGU	0.367
GGGGGCCACAGCAGAAGCGUUCACGUCGUGGCCCCUGUCAUAUUCUGGUGAAUCUGCGAAUUCUGCUGU	0.191
GGGGGCCACAGCAGAAGCGUUCACGUCGGGGCCCCCGUCAGAUUCUGGUGAAUCUGCGAAUUCUGCUGU	0.286
GGGGGCCACAGCAGAAGCGUUCACGUCGUGGCCCAUGUCAGAUUCUGGUGAAUCUGCGAAUUCUGCUGU	0.186
GGGGGCCACAGCAGAAGCGUUCACGUCGUGGCCCGUGUCAGAUUCUGGUGAAUCUGCGAAUUCUGCUGU	0.237
GGGGGCCACAGCAGAAGCGUUCACGUCGUGGCCCCUGUCAGAUUCUGGUGAAUCUGCGAACUCUGCUGU	0.183
GGGGGCCACAGCAGAAGCGUUCACGUCGCAGCCCCUGUCAGAUUCUGGUGCAUCUGCGAAUUCUGCUGU	0.718
GGGGGCCACAGCAGAAGCGUUCACGUCGUGGCCCCUGUCAGAUUCUGGUGAAUCUGCGACUUCUGCUGU	0.223

Variant	self-cleavage
GGGGGCCACAGCAGAAGCGUUCACGUCGGGGCCCCUGUCAGAUUCUGGUGAAUCUGCGAAUUCUGCUGG	0.703
GGGGGCCACAGCAGAAGCGUUCACGUCGUAGCCCCUGUCAGAUUCUGGUGAAUCUGCGAAUUCUGCUGU	0.283
GGGGGCCACAGCAGAAGCGUUCACGUCGCAGCCCCUGUAAGAUUCUGGUGAAUCUGCGAAUUCUGCUGU	0.362
GGGGGCCACAGCAGAAGCGUUCACGUCGGGGCCCCUGUCAGAUGCUGGUGAAUCUGCGAAUUCUGCUGU	0.361
GGGGGCCACAGCAGAAGCGUUCACGUCGUGGCCCCCGUCAGAUUCUGGUGAAUCUGCGAAUUCUGCUGU	0.244
GGGGGCCACAGCAGAAGCGUUCACGUCGUGGCCCCGGUCAGAUUCUGGUGAAUCUGCGAAUUCUGCUGU	0.147
GGGGGCCACAGCAGAAGCGUUCACGUCGGGGCCCCUGUCAGAUUCUGGUGAAUCUGCGAAUUCUGCCGU	0.47
GGGGGCCACAGCAGAAGCGUUCACGUCGGGGCCCCUGUCAGAUUCUGGUGAAUCUGCGAAUUCUGCAGU	0.517
GGGGGCCACAGCAGAAGCGUUCACGUCGGGGCCCCUGUCAGAUUCUGGUGAAUCUGCGAAUUCUGCGGU	0.482
GGGGGCCACAGCAGAAGCGUUCACGUCGGGGCCCCUGUCAUAUUCUGGUGAAUCUGCGAAUUCUGCUGU	0.21
GGGGGCCACAGCAGAAGCGUUCACGUCGGGGCCCCUGUCACAUUCUGGUGAAUCUGCGAAUUCUGCUGU	0.173
GGGGGCCACAGCAGAAGCGUUCACGUCGGUGCCCCUGUCAGAUUCUGGUGAAUCUGCGAAUUCUGCUGU	0.219
GGGGGCCACAGCAGAAGCGUUCACGUCGCAGCCACUGUCAGAUUCUGGUGAAUCUGCGAAUUCUGCUGU	0.286
GGGGGCCACAGCAGAAGCGUUCACGUCGCAGCCGCUGUCAGAUUCUGGUGAAUCUGCGAAUUCUGCUGU	0.278
GGGGGCCACAGCAGAAGCGUUCACGUCGUGGCCCCUGACAGAUUCUGGUGAAUCUGCGAAUUCUGCUGU	0.2
GGGGGCCACAGCAGAAGCGUUCACGUCGCAGCGCCUGUCAGAUUCUGGUGAAUCUGCGAAUUCUGCUGU	0.227
GGGGGCCACAGCAGAAGCGUUCACGUCGGGGCCCCUGUCAGAUUCUGGUGAAUCUGCGAACUCUGCUGU	0.221
GGGGGCCACAGCAGAAGCGUUCACGUCGGGGCCCCUGUCAGAUUCUGGUGAAUCUGCGAAGUCUGCUGU	0.348
GGGGGCCACAGCAGAAGCGUUCACGUCGCAGCCCCUGUCAGAUUCUGGUGAAUCUGCGGAUUCUGCUGU	0.708
GGGGGCCACAGCAGAAGCGUUCACGUCGCAGCCCCUGUCAGAUUCUGGUGAAUCUGCGCAUUCUGCUGU	0.275
GGGGGCCACAGCAGAAGCGUUCACGUCGUGGCCCCUGUCAGAUUCUGGUGAAUCUGCGAAUUCUGGUGU	0.206
GGGGGCCACAGCAGAAGCGUUCACGUCGGGGCCCCUGUCAGAUUCUGGUGAAUCUGCAAAUUCUGCUGU	0.327
GGGGGCCACAGCAGAAGCGUUCACGUCGGGGCCCCUGUCAGAUUCUGGUCAAUCUGCGAAUUCUGCUGU	0.457
GGGGGCCACAGCAGAAGCGUUCACGUCGUGGCCCCUGUCAGAUUCUGGUGAAUCUCCGAAUUCUGCUGU	0.26
GGGGGCCACAGCAGAAGCGUUCACGUCGGGGCCCCUGUCAGAAUCUGGUGAAUCUGCGAAUUCUGCUGU	0.186
GGGGGCCACAGCAGAAGCGUUCACGUCGGGGCCCCUGUCAGACUCUGGUGAAUCUGCGAAUUCUGCUGU	0.428

Variant	self-cleavage
GGGGGCCACAGCAGAAGCGUUCACGUCGUGGCCCCUGUGAGAUUCUGGUGAAUCUGCGAAUUCUGCUGU	0.163
GGGGGCCACAGCAGAAGCGUUCACGUCGGGCCCCCUGUCAGAUUCUGGUGAAUCUGCGAAUUCUGCUGU	0.13
GGGGGCCACAGCAGAAGCGUUCACGUCGGGGCCCCUGUCAGAUUCUGGCGAAUCUGCGAAUUCUGCUGU	0.544
GGGGGCCACAGCAGAAGCGUUCACGUCGCAGCCCCUGUCAGUUUCUGGUGAAUCUGCGAAUUCUGCUGU	0.677
GGGGGCCACAGCAGAAGCGUUCACGUCGCAGCCCCUGUCAGCUUCUGGUGAAUCUGCGAAUUCUGCUGU	0.623
GGGGGCCACAGCAGAAGCGUUCACGUCGGGGCCCCUGUCAGAUUCUGGUGAAUCUGCGAAUUCAGCUGU	0.191
GGGGGCCACAGCAGAAGCGUUCACGUCGCAGCCCGUGUCAGAUUCUGGUGAAUCUGCGAAUUCUGCUGU	0.186
GGGGGCCACAGCAGAAGCGUUCACGUCGCAGCCCUUGUCAGAUUCUGGUGAAUCUGCGAAUUCUGCUGU	0.533
GGGGGCCACAGCAGAAGCGUUCACGUCGUGGCCCCUGUCAGAUUCUGGUGAAUCUGCGUAUUCUGCUGU	0.232
GGGGGCCACAGCAGAAGCGUUCACGUCGUGGCCCCUGUCAGAUUCUGGUGAAUCUGCGAAUUCGGCUGU	0.206
GGGGGCCACAGCAGAAGCGUUCACGUCGUGGCCCCUGUCAGAUUCUGGUGAAUCUGCGAAUUCAGCUGU	0.171
GGGGGCCACAGCAGAAGCGUUCACGUCGUGGCCCCUGUCAGAUACUGGUGAAUCUGCGAAUUCUGCUGU	0.26
GGGGGCCACAGCAGAAGCGUUCACGUCGUGGCCCCUGUCAGAUUCUGGUGAACCUGCGAAUUCUGCUGU	0.143
GGGGGCCACAGCAGAAGCGUUCACGUCGUGGCCCCUGUCAGAUUCUGGUGAAACUGCGAAUUCUGCUGU	0.267
GGGGGCCACAGCAGAAGCGUUCACGUCGUGGCCCCUGUCAGAUUCUGGUGAAGCUGCGAAUUCUGCUGU	0.264
GGGGGCCACAGCAGAAGCGUUCACGUCGUGGCCCCUGUCAGAUUCGGGUGAAUCUGCGAAUUCUGCUGU	0.571
GGGGGCCACAGCAGAAGCGUUCACGUCGUGGCCCCUGUCAGAUUCCGGUGAAUCUGCGAAUUCUGCUGU	0.433
GGGGGCCACAGCAGAAGCGUUCACGUCGGGGCCCCUGUCAGAUUCUGGUGAAUCUGCGAAUUCUGGUGU	0.369
GGGGGCCACAGCAGAAGCGUUCACGUCGUGGACCCUGUCAGAUUCUGGUGAAUCUGCGAAUUCUGCUGU	0.295
GGGGGCCACAGCAGAAGCGUUCACGUCGUGGCCCCUGUCAGAUUCUGCUGAAUCUGCGAAUUCUGCUGU	0.61
GGGGGCCACAGCAGAAGCGUUCACGUCGGGGCCCCUAUCAGAUUCUGGUGAAUCUGCGAAUUCUGCUGU	0.178
GGGGGCCACAGCAGAAGCGUUCACGUCGGGGCCCCUCUCAGAUUCUGGUGAAUCUGCGAAUUCUGCUGU	0.169
GGGGGCCACAGCAGAAGCGUUCACGUCGUGGCCCCUGUCAGAUUCUGGUGUAUCUGCGAAUUCUGCUGU	0.432
GGGGGCCACAGCAGAAGCGUUCACGUCGUGGCCCCUGUCAGAUUCUGGUGCAUCUGCGAAUUCUGCUGU	0.356
GGGGGCCACAGCAGAAGCGUUCACGUCGUGGCCCCUGUCAGAGUCUGGUGAAUCUGCGAAUUCUGCUGU	0.168
GGGGGCCACAGCAGAAGCGUUCACGUCGUGGCCCCUGUCAGAAUCUGGUGAAUCUGCGAAUUCUGCUGU	0.171
